Source: US20200109211A1 (ELSALYS BIOTECH, published 2020)

T1: recombinant human CD160 protein, soluble form, with a C-terminal tag of 6 histidine residues (R&D SYSTEMS) (human, UniProt O95971 27-159, limits assumed, biotinylated with EZ-Link sulfo-NHS-LC-biotin for BLI and ELISA; not biotinylated when immobilised on the CM5 chip for SPR)
T1 construct: domain: soluble form; Bought protein; also called hCD160-his; biotinylated CD160
T1 sequence: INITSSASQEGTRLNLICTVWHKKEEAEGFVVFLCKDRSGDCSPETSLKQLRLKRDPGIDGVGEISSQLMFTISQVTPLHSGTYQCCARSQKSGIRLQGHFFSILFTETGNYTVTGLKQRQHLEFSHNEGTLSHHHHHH

T2: human CD160 (CD160 GPI isoform) on cells (human, UniProt O95971 25-159, GPI anchor)
T2 construct: whole, on cells; Used for all cells said to carry human CD160: transfected CHO-S and E300 cells and cells that carry it naturally (YT2C2, blood NK, CD8+ T, T CD4, CLL cells); also called hCD160; CHO-S-hCD160 (clone 2G10)
T2 sequence (looked up): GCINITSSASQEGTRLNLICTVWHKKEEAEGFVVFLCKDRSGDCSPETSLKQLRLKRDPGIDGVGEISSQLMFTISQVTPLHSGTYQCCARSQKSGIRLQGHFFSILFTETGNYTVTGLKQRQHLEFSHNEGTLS

B1: FJ1516MP02A12 (H7 VH family 3) Fab clone (Fab, V domains shown)
VH: QVQLVQSGAEVKKPGASVKVSCKASGYTFTDYWMQWIRQAPGQGLEWIGAIYPGDDDAQFTQKFRGRATLTADKSTSTAYMELSSLRSEDTAVYYCARRGIAAVVGGFDYWGQGTTLTVSS
VL: EIVLTQSPATLSLSPGERATLSCRASQSISNHLHWYQQKPGQAPRLLIKYASQSISGIPARFSGSGSGTDFTLTISSLEPEDFAVYFCQQSNSWPLTFGGGTKVEIK
notes: Tested as Fab on phage and as soluble Fab in periplasmic extract
B2: FJ1516MP02D09 (H7 VH family 2) Fab clone (Fab, V domains shown)
VH: QVQLVQSGAEVKKPGASVKVSCKASGYTFSESWMQWIRQAPGQGLEWIGAIYPGDDEARVTQKFRGRATLTADKSTSTAYMELSSLRSEDTAVYYCARRGIAAVVGGFDYWGQGTTLTVSS
VL: EIVLTQSPATLSLSPGERATLSCRASQSISNHLHWYQQKPGQAPRLLIKYASQSISGIPARFSGSGSGTDFTLTISSLEPEDFAVYFCQQSNSWPLTFGGGTKVEIK
notes: as for B1
B3: FJ1516MP02G05 (H7 VH family 4) Fab clone (Fab, V domains shown)
VH: QVQLVQSGAEVKKPGASVKVSCKASGYTFADYWMQWIRQAPGQGLEWIGAIYPGDDDAQYTQKFRGRATLTADKSTSTAYMELSSLRSEDTAVYYCARRGIAAVVGGFDYWGQGTTLTVSS
VL: EIVLTQSPATLSLSPGERATLSCRASQSISNHLHWYQQKPGQAPRLLIKYASQSISGIPARFSGSGSGTDFTLTISSLEPEDFAVYFCQQSNSWPLTFGGGTKVEIK
notes: as for B1

Legend:
[1] = target: T1, recombinant human CD160 protein, …; assay: phage ELISA, Fab on phage
Source text: (§1) Thus, phage clones were generated and also made it possible to produce periplasmic extracts of bacteria, containing unpurified soluble Fabs. The individual clones were selected for their binding capacity to the human CD160 protein, by ELISA, and to cells expressing human CD160 by FACS, this being i) either in the form of gene III-Fab fusion proteins expressed at the surface of the filamentous phage or ii) in the form of periplasmic extracts containing fragments of unpurified soluble Fabs. The individual clones (in the form of periplasmic extracts containing fragments of soluble Fabs) were also classified according to their kinetic dissociation constant (kdis).
(§2) From a practical point of view, the binding of the phage to human CD160 was detected using an anti-M13 HRP conjugated antibody. The binding of the phage to the cells expressing CD160 was detected using a mouse anti-M13-biotin antibody followed by Streptavidin-PE.

[2] = target: T1, recombinant human CD160 protein, …; assay: ELISA, soluble Fab in periplasmic extract
Source text: (§3) The binding of the clones selected (from the rounds of selection on CD160 protein and on CHO-CD160 cells) as soluble Fab was also looked at by ELISA and FACS using periplasmic extracts (P.E). The binding of the soluble Fabs to the human CD160 protein, using ELISA, was detected using an anti-c-myc antibody followed by an anti-mouse HRP conjugated antibody. The binding of the soluble Fabs to the CHO cells overexpressing human CD160 was detected using an anti-c-myc antibody followed by a goat anti-mouse APC conjugated antibody. The results of the ELISA and FACS experiments using Fabs expressed at the surface of the phages or in periplasmic extracts confirmed the binding capacity of each of the affinity-matured H7 clones to human CD160.

[3] = target: T2, human CD160 (CD160 GPI isoform) on cells; assay: phage FACS on CHO cells expressing hCD160
Source text: as §1, §2

[4] = target: T2, human CD160 (CD160 GPI isoform) on cells; assay: FACS on CHO cells overexpressing hCD160, soluble Fab in periplasmic extract
Source text: as §3

[5] = target: T1, recombinant human CD160 protein, …; assay: SPR (Biacore 3000), hCD160 on CM5 chip, periplasmic extract with soluble Fab diluted 1:5
Protocol: The binding capacity of the H7 variants was also tested by surface plasmon resonance (SPR). For this, a Biacore 3000 (GE Healthcare) was used. […] The integrity of the immobilized human CD160 was confirmed using the anti-huCD160 H7 IgG1 antibody. For the kinetic measurements, concentrations in cascade of human ECD160 with two-fold dilutions (0.15 μM-10 μM) were injected, twice, in PBS, with a Biacore P20 buffer at 25° C. and a flow rate of 30 μl/min.
The regeneration conditions were tested and 10 pi of 10 mM NaOH/1M NaCl were injected for the regeneration between the sample injections. To analyse the binding of the clones to human CD160, the periplasmic extracts containing the soluble Fabs were diluted to 1:5 in BIACORE P20 buffer (10 mM Hepes, 150 mM NaCl, 3 mM EDTA, 0.005% Tween-20) with a flow rate of 30 μl/min for 120 seconds for the association; the dissociation was measured for 300 seconds.
The maximum absolute response of the binding of each of these variants (expressed as measurement of arbitrary response units at time=120 seconds post-injection of the antibody) was evaluated on a surface coated with CD160 protein.

Binder	Phage ELISA O.D450 nm on biotinylated CD160 [1]	P.E ELISA O.D450 nm on biotinylated CD160 [2]	Phage FACS (% binding) [3]	P.E FACS (% binding) [4]	Biacore R.U ratio (variant/FaWT 2E07) [5]	Biacore R.U ratio (variant/H7 WT) [5]	Binding response, RU arbitrary unit (at t = 120 s post-mab injection) [5]
B1	6 OD450	0.148 OD450	92.1%	1.23%	1.5 fold	3.3 fold	20.1 RU
B2	3.63 OD450	0.174 OD450	76.4%	1.08%	1.5 fold	3.2 fold	19.3 RU
B3	3.46 OD450	0.141 OD450	86.9%	1.06%	1.2 fold	2.6 fold	16 RU
